Source: US20220340666A1 (NEW YORK UNIVERSITY, published 2022)
Positions count from the first letter of the chain named. Like-named read-outs stand apart in the source and are kept apart here.

Legend:
[1] = target: T1, human Galectin-9 CRD2 (residues 218-355), biotinylated (human, UniProt O00182 218-355, biotinylated in vitro with BirA (Avitag)); assay: phage ELISA, phage-displayed Fab
T1 construct: also called wild type human Galectin-9 CRD2; not shown: hexahistidine tag, Avitag and TEV cleavage site upstream of the cloned gene (pHBT vector)
Description: (§1) FIG. 13 is a graph showing a binding characterization of G9.2 Fab clone for wild-type Galectin-9 CRD2 or the […] mutant using phage ELISA. Binding of Fab clones to human Galectin-9 CRD2 assayed using phage ELISA.
(§2) Potential additional epitopes were explored using additional clones that bind to Galectin-9 CRD2. A phage display library selection using a modified scheme so as to enrich clones that bind to an epitope that is distinct from that of G9.2-17 was performed.

[2] = target: T2, human Galectin-9 CRD1 (residues 1-148), biotinylated (human, UniProt O00182 1-148, biotinylated in vitro with BirA (Avitag)); assay: bead-based binding assay, purified Fab (FIG. 5)
T2 construct: Made as GST fusion, GST cleaved off with thrombin, gel filtered, biotinylated; not shown: Avitag upstream of the cloned gene (pGEX vector), left after thrombin cleavage from GST
Description: (§3) The affinities of the antibodies were assessed using a bead-based assay as previously described (Nishikori et al., J Mol Biol, 2012, 424, 391-399) and surface plasmon resonance (SPR). In the bead-based assay, a biotinylated protein (either a Galectin-9 sample or a Fab sample) was immobilized on streptavidin-coated Dynabeads M280 via the biotin-streptavidin interaction. After blocking the excess biotin-binding sites on the beads using unconjugated biotin, binding titration was performed by incubating the second component (i.e., Fab for immobilized Galectin-9 or vice versa), followed by quantification using a dye-labeled neutravidin (ThermoFisher) and flow cytometry analysis. In experiments where the second component is an IgG, a dye-labeled anti-human IgG or anti-mouse IgG antibody was used for detection.

[3] = target: T1, human Galectin-9 CRD2 (residues …); assay: phage ELISA, phage-displayed Fab; also on CRD2 pre-incubated with G9.2-17 IgG
Description: as §1, §2

[4] = target: T3, human Galectin-9 CRD2 W309K mutant, biotinylated (human, UniProt O00182 218-355, biotinylated (Avitag)); assay: phage ELISA, phage-displayed Fab
T3 construct: also called W309K Galectin-9 CRD2 mutant; not shown: tags of the pHBT vector as for wild-type CRD2
Description: as §1, §2

[5] = target: T1, human Galectin-9 CRD2 (residues …); assay: SPR, Fab over CRD2 on Avicap chip (OneStep)
Source text: FIG. 12 contains charts showing surface plasmon resonance analyses of Fab G9.2-17 (top) and Fab G9.2.17mut6 (bottom) binding to the CRD2 of human (left) and mouse (right) Galectin-9. Human or mouse Galectin-9 CRD2 was immobilized on an Avicap chip preloaded with neutravidin on a Pall ForteBio Pioneer instrument. Fab samples were then flowed using the OneStep method. The binding and dissociation phases of the experiments are marked in the top panels.
In SPR experiments, a biotinylated Galectin-9 sample was immobilized on an Avicap chip (Pall ForteBio) that had been preloaded with neutravidin (ThermoFisher). Antibody samples were flowed using the OneStep method on a Pioneer SPR instrument (Pall ForteBio) and the results are provided in FIG. 6.

[6] = target: T2, human Galectin-9 CRD1 (residues 1-148), …; assay: bead-based binding assay, flow cytometry
Description: as §3

[7] = target: T2, human Galectin-9 CRD1 (residues 1-148), …; assay: bead-based binding assay, flow cytometry; remark: listed apart in the source
Description: as §3

[8] = target: T2, human Galectin-9 CRD1 (residues 1-148), …; assay: bead-based binding assay, flow cytometry; remark: listed apart in the source
Description: as §3

[9] = target: T1, human Galectin-9 CRD2 (residues …); assay: bead-based binding assay

T1 sequence (O00182 218-355 limits assumed): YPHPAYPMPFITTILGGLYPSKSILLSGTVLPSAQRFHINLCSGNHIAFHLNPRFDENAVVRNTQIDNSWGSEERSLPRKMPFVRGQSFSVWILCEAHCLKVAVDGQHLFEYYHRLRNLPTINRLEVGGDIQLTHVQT
T2 sequence (O00182 1-148): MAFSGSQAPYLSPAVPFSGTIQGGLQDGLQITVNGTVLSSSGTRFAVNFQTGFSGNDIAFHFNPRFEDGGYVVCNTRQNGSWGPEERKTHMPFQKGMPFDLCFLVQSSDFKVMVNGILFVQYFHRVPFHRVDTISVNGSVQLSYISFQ
T3 sequence (O00182 218-355 W309K): as the sequence (O00182 218-355 limits assumed) above, with W92K counted along it

B1: G9.2-15 Fab (Fab, V domains shown)
VH: EVQLVESGGGLVQPGGSLRLSCAASGFTVSSSSIHWVRQAPGKGLEWVASIYSSSGYTSYADSVKGRFTISADTSKNTAYLQMNSLRAEDTAVYYCARNVENYPYWAWPWGYYGAIDYWGQGTLVTVSS
VL: DIQMTQSPSSLSASVGDRVTITCRASQSVSSAVAWYQQKPGKAPKLLIYSASSLYSGVPSRFSGSRSGTDFTLTISSLQPEDFATYYCQQSSWGLITFGQGTKVEIKR
notes: Avitag at the C-terminus of the heavy chain, biotinylated when required; also called Fab G9.2-15
Does B1 bind [1]?
Result: binds

B2: G9.1-6 Fab (Fab, V domains shown)
VH: EVQLVESGGGLVQPGGSLRLSCAASGFTLSSSSIHWVRQAPGKGLEWVASIYSSYGSTSYADSVKGRFTISADTSKNTAYLQMNSLRAEDTAVYYCARSSHWYMYWSYWGWYIGMDYWGQGTLVTVSS
VL: B1 VL with S91Y, S92H, W93S, G94S, I96F
notes: Avitag at the C-terminus of the heavy chain, biotinylated when required
Does B2 bind [2]?
Result: binds

B3: G9.2-24 Fab (Fab, V domains shown)
VH: EVQLVESGGGLVQPGGSLRLSCAASGFTVYSSSIHWVRQAPGKGLEWVASIYSSYGYTSYADSVKGRFTISADTSKNTAYLQMNSLRAEDTAVYYCARSYSSETHYGWAMDYWGQGTLVTVSS
VL: B1 VL with S91W, W93Q, G94S, L95P, I96V
Does B3 bind [3]?
Result: binds

Does B3 bind [4]?
Result: binds

B4: G9.2-17 Fab (Fab, V domains shown)
VH: EVQLVESGGGLVQPGGSLRLSCAASGFTVSSSSIHWVRQAPGKGLEWVAYISSSSGYTYYADSVKGRFTISADTSKNTAYLQMNSLRAEDTAVYYCARYWSYPSWWPYRGMDYWGQGTLVTVSS
VL: B1 VL with W93T, G94D, L95P
notes: Avitag at the C-terminus of the heavy chain, biotinylated when required; also called Fab G9.2-17
Does B4 bind [1]?
Result: binds

B5: G9.2-17mut6 Fab (Fab, V domains shown)
VH: B4 VH with W106S
VL: B1 VL with W93T, G94D, L95P
notes: Purified Fab; point mutant of G9.2-17 in CDR-H3; also called Fab G9.2-17mut6; G9.2-17m6
Does B5 bind [5]?
Result: binds

B6: G9.2-26 Fab (Fab, V domains shown)
VH: EVQLVESGGGLVQPGGSLRLSCAASGFTVSSSSIHWVRQAPGKGLEWVAYISSYSGSTYYADSVKGRFTISADTSKNTAYLQMNSLRAEDTAVYYCARSSALYWMDFSYSALDYWGQGTLVTVSS
VL: DIQMTQSPSSLSASVGDRVTITCRASQSVSSAVAWYQQKPGKAPKLLIYSASSLYSGVPSRFSGSRSGTDFTLTISSLQPEDFATYYCQQGGWYYGPITFGQGTKVEIKR
Does B6 bind [3]?
Result: binds

Does B6 bind [4]?
Result: binds

B7: G9.1-8 WT mIgG1 (antibody, V domains shown)
VH: EVQLVESGGGLVQPGGSLRLSCAASGFTVSSSSIHWVRQAPGKGLEWVAYIYPYSGYTSYADSVKGRFTISADTSKNTAYLQMNSLRAEDTAVYYCARYSTYSWGGIGKWVWGMDYWGQGTLVTVSS
VL: B6 VL with G91S, G92Y, W93Y, Y94D, Y95S, G96N
B7 was tested. Which Kd [6] did it give?
The Kd was 2.4 nM.

What about the Kd [7] of the same binder?
Its Kd is 0.63 nM.

B8: G9.1-8 Fab (Fab, V domains shown)
VH: B7 VH
VL: B6 VL with G91S, G92Y, W93Y, Y94D, Y95S, G96N
notes: Avitag at the C-terminus of the heavy chain, biotinylated when required; also called G9.1-8 WT Fab
Which results are given for B8?
Kd [8]: 2.13 nM; Kd [6]: 0.45 nM

B9: G9.1-8m12 mIgG2a (antibody, V domains shown)
VH: EVQLVESGGGLVQPGGSLRLSCAASGFTVSSSSIHWVRQAPGKGLEWVAYIYPYSSSSSYADSVKGRFTISADTSKNTAYLQMNSLRAEDTAVYYCARYSTYSSSKWVWGMDYWGQGTLVTVSS
VL: B6 VL with G91S, G92Y, W93Y, Y94D, Y95S, G96N
notes: also called G9.1-8mut12
Does B9 bind [9]?
Result: no binding

And the Kd [7]?
Its Kd is 0.32 nM.

B10: G9.1-8m14 mIgG2a (antibody, V domains shown)
VH: EVQLVESGGGLVQPGGSLRLSCAASGFTVSSSSIHWVRQAPGKGLEWVAYIYPYSSSSSYADSVKGRFTISADTSKNTAYLQMNSLRAEDTAVYYCARYSTYKWVWGMDYWGQGTLVTVSS
VL: B6 VL with G91S, G92Y, W93Y, Y94D, Y95S, G96N
notes: also called G9.1-8mut14
Does B10 bind [9]?
Result: no binding

And the Kd [7]?
Its Kd is 2.01 nM.

B11: G9.1-8m13 mIgG2a (antibody, V domains shown)
VH: EVQLVESGGGLVQPGGSLRLSCAASGFTVSSSSIHWVRQAPGKGLEWVAYIYPYSSSSSYADSVKGRFTISADTSKNTAYLQMNSLRAEDTAVYYCARYSTYSSKWVWGMDYWGQGTLVTVSS
VL: B6 VL with G91S, G92Y, W93Y, Y94D, Y95S, G96N
notes: also called G9.1-8mut13
Does B11 bind [9]?
Result: no binding

What about the Kd [7] of the same binder?
The Kd was 0.3 nM.

B12: G9.2-25 Fab (Fab, V domains shown)
VH: EVQLVESGGGLVQPGGSLRLSCAASGFTLSSSSIHWVRQAPGKGLEWVASIYSSYGSTSYADSVKGRFTISADTSKNTAYLQMNSLRAEDTAVYYCARQYYTYFEWYMGWGYALDYWGQGTLVTVSS
VL: DIQMTQSPSSLSASVGDRVTITCRASQSVSSAVAWYQQKPGKAPKLLIYSASSLYSGVPSRFSGSRSGTDFTLTISSLQPEDFATYYCQQSYVYYPFTFGQGTKVEIKR
Does B12 bind [3]?
Result: binds

Does B12 bind [4]?
Result: binds
